Like-named read-outs stand apart in the source and are kept apart here. Values belong to the molecule of their own block, whether it stands above or below them. Starred links: 1 amine or outer side, 2 acyl side, 3 side chain; linkers in the order of their positions; H or OH if unused. Positions of bridges follow the written chain, without caps; N, C: chain ends. Non-standard residues stand in square brackets, D forms with d. Residues, ends and D or L forms follow the SMILES beside them. Primed or numbered codes have the meaning given here. No end group written: not given here. *: point of attachment. FITC(3) = fluorescein isothiocyanate (N6-fluorescein-thiocarbamoyl on Lys); FITC = O=C1OC2(c3ccc(O)cc3Oc3cc(O)ccc32)c2ccc(NC(=S)*)cc21; Trimesoyl = O=C(c1cc(C(=O)[*:2])cc(C(=O)[*:3])c1)[*:1]; trimesoyl″ = benzene-1,3,5-tricarbonyl scaffold; FITC′ = fluorescein isothiocyanate, on Lys NZ; Phe(4-F) = N[C@@H](Cc1ccc(F)cc1)C(=O)O; trimesoyl = benzene-1,3,5-tricarbonyl; Phg = N[C@H](C(=O)O)c1ccccc1; Nle = CCCC[C@H](N)C(=O)O; Dap = NC[C@H](N)C(=O)O; AEEA = NCCOCCOCC(=O)O; βAla = NCCC(=O)O
Experiments:
TNFα-TNFR1 interaction = target: T1, TNFα-TNFR1 interaction (Homo sapiens, UniProt P01375); assay: ELISA inhibition of TNFα-TNFR1 interaction (immobilized biotinylated TNFα, TNFR1-HRP); assay type: binding; settings: inhibition of TNFα-TNFR1 interaction, unlabeled peptides
T1 construct: made in house; host or cells: Escherichia coli (TNFα)
Method: Inhibition of TNFα-TNRF1 interaction by ELISA was carried out as previously described (Lian, W.; et al., supra).
Because of its high-throughput capability, FA analysis had been used to generate all of the SAR data described above. […] To confirm the SAR data obtained by FA analysis, some of the compounds in Table 5 (as well as new compounds) were resynthesized without the Lys(FITC) label and employed a more sensitive ELISA-based assay to determine the IC50 values for inhibition of the TNFα-TNFR1 interaction. Briefly, biotinylated TNFα was immobilized onto a NeutrAvidin-coated surface. TNFR1 conjugated with horseradish peroxidase (HRP) (0.5 nM) was added along with different concentrations of a peptide inhibitor. After washing, the amount of bound TNFR1-HRP was quantitated by ELISA. […] In agreement with the FA results, either extension at the C-terminus of β-Ala with another amino acid (C1-67 to C1-70) or side-chain modification of β-Ala (C1-71 to C1-73) decreased TNFα binding.

[1] = test system: TNFα-induced cell death in WEHI-13VAR fibroblasts (recombinant human TNFα); assay type: cell-based
Method: WEHI-13VAR fibroblasts were purchased from American Type Culture Collection (ATCC). For maintenance, cells were grown in full medium as RPMI-1640 supplemented with 10% FBS and 1% Abs. For toxicity assay, cells were seeded in a 96-well plate at a density of 5×10^3 cells/well in 100 μL of RPMI-1640/1% Abs supplemented with 10% or 5% FBS and allowed to grow overnight. Varying concentrations of recombinant human TNFα (0-250 ng/mL) or commercial mouse TNFα were (0-100 pg/mL) were incubated with 10 μM peptide and actinomycin D (1 μg/mL) in 100 μL of corresponding growth medium for 1 h at 37° C. Next, the medium in the 96-well plate was removed and replaced with the above fresh mixture and the cells were incubated overnight. Next day, 10 μL of the 3-(4, 5-dimethylthiazolyl-2)-2, 5-diphenyltetrazolium bromide (MTT, final concentration 0.5 mg/ml) was added to each well and incubated at 37° C. for 3 h, following by the addition of 100 μL of the MTT solubilization solution. The plate was kept in the incubator overnight to let the formazan crystals to completely dissolve, and the absorbance at 570 nm was measured on a TECAN plate reader. The LD50 was obtained as plotting the viability as a function of the TNFα concentration.
One of the biological functions of TNFα is to induce death signaling. Inhibitors against the TNFα-TNFR interaction are expected to protect cells against TNFα induced cell death. Therefore, anticachexin C1, C1-74, and C1-74-2 through C1-74-5 were compared for their ability to protect cultured WEHI-13 VAR fibroblasts, which are highly sensitive to TNFα in the presence of actinomycin-D, against TNFα-induced cell death (Khabar, K. S. A.; et al., “WEHI-13VAR: A Stable and Sensitive Variant of WEHI 164 Clone 13 Fibrosarcoma for Tumor Necrosis Factor Bioassay.” Immunol. Lett. 1995, 46:107-110). The cells were treated with a fixed concentration of peptides (10 μM) and varying concentrations of TNFα (0-1 μM), and the fraction of live cells was quantitated by the 3-(4,5-dimethylthiazol-2-yl)-2,5-diphenyltetrazolium bromide (MTT) assay. […] The MTT assay was also conducted at a fixed concentration of TNFα (0.4 ng/mL) but varying concentrations of peptides (0-10 μM).

Serum stability test = assay type: in vitro ADME, human; settings: 37° C.
Method: Diluted human serum (25%) was centrifuged at 15,000 rpm for 10 min, and the supernatant was collected. A peptide stock solution was diluted into the supernatant to a final concentration of 5 μM and incubated at 37° C. At various time points (0-8 h), 200-μL aliquots were withdrawn and mixed with 50 μL of 15% trichloroacetic acid and 200 μL of acetonitrile. After incubation at 4° C. overnight, the mixture was centrifuged at 15,000 rpm for 10 min in a microcentrifuge, and the supernatant was analyzed by reversed-phase HPLC equipped with an analytical C18 column (Waters). The amount of remaining intact peptide (%, relative that of time zero control) was determined by integrating the area underneath the peptide peak (monitored at 214 nm).

[2] = target: T2, Recombinant TNFα containing an N-terminal 13-aa ybbR tag (human, UniProt P01375 77-233, biotin at the ybbR tag in the ELISA assays); assay: FA, FITC-peptide + TNFα titration
T2 construct: Expressed in E. coli; Same construct used unlabelled (FA) and biotinylated on NeutrAvidin (ELISA); also called tumor necrosis factor-alpha; human TNFα; not shown: N-terminal 13-aa ybbR tag
T2 sequence (P01375 77-233): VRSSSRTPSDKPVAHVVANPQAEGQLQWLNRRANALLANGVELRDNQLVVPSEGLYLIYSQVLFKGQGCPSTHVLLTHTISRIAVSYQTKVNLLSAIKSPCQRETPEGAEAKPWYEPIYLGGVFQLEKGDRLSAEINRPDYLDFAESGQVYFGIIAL
Method: (§1) The FA values were measured on a Molecular Devices Spectramax M5 spectrofluorimeter, with excitation and emission wavelengths at 485 and 525 nm, respectively. Equilibrium dissociation constants (KD) were determined by plotting the FA values as a function of TNFα concentration and fitting the data to the following equation $$Y = \frac{\left(Amin + \left(Amax \times \frac{Q_b}{Q_f} - Amin\right)\left(\frac{(L+x+K_d) - \sqrt{((L+x+K_d)^2 - 4Lx)}}{2L}\right)\right)}{\left(1 + \left(\frac{Q_b}{Q_f} - 1\right)\left(\frac{(L+x+K_d) - \sqrt{((L+x+K_d)^2 - 4Lx)}}{2L}\right)\right)}$$
(§2) where Y is the measured anisotropy at a given TNFα concentration x; L is the bicyclic peptide concentration; Qb/Qf is the correction fact for dye-protein interaction; Amax is the maximum anisotropy when all the peptides are bound to TNFα, while $Amin$ is the minimum anisotropy. […] The FA values were plotted against the competitor peptide concentration to determine the IC$50$ values.

[3] = target: T2, Recombinant TNFα containing an …; assay: FA; against C1
Method: as §1, §2

[4] = target: T2, Recombinant TNFα containing an …; assay: FA, FITC-peptide + TNFα titration; remark: listed apart in the source
[5] = target: T2, Recombinant TNFα containing an …; assay: cell-based or functional assay
[6] = target: Recombinant TNFα containing an N-terminal 13-aa ybbR tag (human) (UniProt P01375); assay: FA, FITC-peptide + TNFα titration
Sequence of Recombinant TNFα containing an N-terminal 13-aa ybbR tag (human) (P01375 77-233): as above

[7] = target: T2, Recombinant TNFα containing an …; assay: FA, FITC-peptide + TNFα titration; remark: listed apart in the source
Method: as §1, §2

[8] = target: T2, Recombinant TNFα containing an …; assay: FA
Method: as §1, §2

[9] = target: T2, Recombinant TNFα containing an …; assay: ELISA, inhibition of TNFR1-HRP binding to immobilized biotin-TNFα
From the text: Because of its high-throughput capability, FA analysis had been used to generate all of the SAR data described above. […] Briefly, biotinylated TNFα was immobilized onto a NeutrAvidin-coated surface.

Molecule: CC(=O)[C@@H](Cc1ccccc1)NC(=O)[C@@H](C)NC(=O)C(N)Cc1ccc(F)c(F)c1 (some centres unmarked) [Compound C1-74-3]
IC50 (TNFα-TNFR1 interaction): 150 ± 43 nM
LD50 [1]: 2.6 ± 0.9 ng/mL

Molecule: CCCC[C@@H]1NC(=O)c2cc3cc(c2)C(=O)NC[C@@H](C(=O)NCCC(N)=O)NC(=O)[C@H](Cc2c[nH]cn2)NC(=O)[C@@H](CCCCN)NC(=O)CNC(=O)[C@@H](Cc2c[nH]cn2)NC(=O)[C@H](Cc2c[nH]c4ccccc24)NC(=O)[C@H](CCCCNC3=O)NC(=O)[C@@H](C)NC(=O)[C@H](Cc2ccc(O)cc2)NC1=O [Compound C1-74] ([Nle]Y[dA]KW[dH]G[dK]H[Dap][βAla]-NH2; linker N-4-10 via Trimesoyl)
IC50 (TNFα-TNFR1 interaction): 70 nM
EC50 [1]: ~1000 nM

Molecule: DRQIKIWFQNRRMKWKKTALDWSWLQTE [Antp-NBD]
Time to complete degradation in human serum (Serum stability test): ≤ 2 h
half-life at 5 μM (Serum stability test; human, diluted human serum (25%), supernatant after centrifugation): ~15 min

Molecule: [Nle]Y[dS]KW[dH]G[dK]H[Dap]F[AEEA]K(FITC)-NH2 (linker N-4-10 via trimesoyl″, C1-35 core with R11 as printed) [C1-55]
Kd [2]: 1000 nM

B5: C1-56 (peptide)
peptide: [Nle]Y[dS]KW[dH]G[dK]H[Dap][dF][AEEA]K(FITC)-NH2
modifications: linker (positions not given here) via trimesoyl; not fully specified (N-terminus, bridges)
Kd [6]: 630 nM

Molecule: [Nle]Y[dS]KW[dH]G[dK]H[Dap]K(FITC)-NH2 (linker N-4-10 via trimesoyl″) [C1-35]
Kd [4]: 260 nM
Kd [2]: 260 nM
Kd [7]: 260 nM
fold increase in affinity against Tyr at position-5 [8]: 3 fold

Molecule: [Nle]Y[dS]KW[dH]G[dK]H[Dap]DK(FITC)-NH2 (linker (positions not given here) via trimesoyl″; not fully specified (bridges), C1-35 core with R11 as printed) [C1-51]
Kd [2]: 3500 nM

Molecule: [Nle]Y[dS]KW[dH]G[dK]H[Dap]NK(FITC)-NH2 (linker N-4-10 via trimesoyl″, C1-35 core with R11 as printed) [C1-52]
Kd [2]: 790 nM
fold reduction in affinity against C1-35 [8]: 3 fold

Molecule: [Nle]Y[dS]KW[dH]G[dK]H[Dap][AEEA]K(FITC)-NH2 (linker N-4-10 via trimesoyl″, C1-35 core with R11 as printed) [C1-54]
Kd [2]: 5100 nM

The remaining lines, values ahead:

Kd [2]: 510 nM
Molecule: [Nle]Y[dS]KW[dH]G[dK]H[Dap]I[AEEA]K(FITC)-NH2 (linker N-4-10 via trimesoyl″, C1-35 core with R11 as printed) [C1-57]

Fold of Affinity Reduction [3]: 14 fold
Kd [4]: 13000 nM
B1: Anticachexin C1 Tyr2 → Ala, NNNK(FITC)-tagged (peptide)
peptide: [Phg]A[dA]KY[dF]G[dK]H[Dap]NNNK(FITC′)-NH2
modifications: bridge (positions not given here) via trimesoyl″; not fully specified (N-terminus, bridges); also: feature: K4 labeled with FITC

Fold of Affinity Reduction [3]: 12 fold
Kd [4]: 11000 nM
B2: Anticachexin C1 Tyr5 → Ala, NNNK(FITC)-tagged (peptide)
peptide: [Phg]Y[dA]KA[dF]G[dK]H[Dap]NNNK(FITC′)-NH2
modifications: bridge (positions not given here) via trimesoyl″; not fully specified (N-terminus, bridges); also: feature: K4 labeled with FITC

EC50 of protection of WEHI-13VAR cells from 0.4 ng/mL TNFα, MTT [5]: ~1000 nM
B3: C1-74 (peptide)
peptide: [Nle]Y[dA]KW[dH]G[dK]H[Dap][βAla]-NH2
modifications: linker N-4-10 via trimesoyl
notes: C1-66 with D-Ser3 reverted to D-Ala; also called bicyclic peptide C1-74

Kd [6]: 2100 nM
B4: C1-38 (peptide)
peptide: [Nle][Phe(4-F)][dS]K[Phe(4-F)][dH]G[dK]H[Dap]K(FITC)-NH2
modifications: linker (positions not given here) via trimesoyl; not fully specified (N-terminus, bridges)

Fold of Affinity Reduction [3]: 1.2 fold
Kd [4]: 1000 nM
Molecule: AY[dA]KY[dF]G[dK]H[Dap]NNNK(FITC(3))-NH2 (linker N-4-10 via trimesoyl″) [Anticachexin C1 Phg1 → Ala, NNNK(FITC)-tagged]

IC50 [9]: 2600 nM
Molecule: [Nle]Y[dS]KW[dH]G[dK]H[Dap][βAla]A-NH2 (linker N-4-10 via trimesoyl″, No Lys(FITC) label) [C1-68]

Source: patent US10913773B2, “Bicyclic peptidyl inhibitor of tumor necrosis factor-alpha” (Ohio State Innovation Foundation, priority 2016, dated 2021)
